Assay results: paper PMC7064404

Experiments:
[1] = biological target: GFP-tagged full length Shank3 S685A (rat) (rat); experiment: co-IP
[2] = biological target: GFP-tagged full length Shank3 S685D (rat) (rat); experiment: co-IP
[3] = biological target: GST-Shank3 (572-691) wild type, pre-phosphorylated by CaMKIIα at Ser685 (rat); experiment: pull-down
Sequence of GST-Shank3 (572-691) wild type, pre-phosphorylated by CaMKIIα at Ser685 (rat) (Q9JLU4 572-691): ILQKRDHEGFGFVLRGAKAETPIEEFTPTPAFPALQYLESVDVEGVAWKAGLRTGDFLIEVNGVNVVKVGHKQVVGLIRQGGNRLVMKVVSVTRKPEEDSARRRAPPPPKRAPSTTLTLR

- percent reduction of co-immunoprecipitated HA-ABI1 (HA/GFP) compared to WT [1]: 37%
- percent reduction of co-immunoprecipitated HA-ABI1 (HA/GFP) compared to WT [2]: 32%
- HA-ABI1 binding (HA/GST) relative to no CaMKII condition [3]: 148%
Substance: N-terminal HA-tagged ABI1 (Abelson interactor 1), full length (from UniProt Q8IZP0 1-508) (natural protein)
